Test results from patent US20250361299A1 (ZHEJIANG SHIMAI PHARMACEUTICAL, published 2025).

Target: T1, Recombinant human EGFR (human, UniProt P00533 25-645)
T1 construct: Bought protein coated on ELISA plates (100 ng per well); also called human antigen EGFR
Assay: ELISA on coated human EGFR, antibody not treated with uPA
Method: To determine the binding affinity of proBiTEs to CD3 and EGFR, ELISA was performed according to standard protocols. Briefly, human antigen CD3 and EGFR were coated on Corning EIA/RIA high-binding 96-well plates (Corning Inc.) at 100 ng per well overnight at 4° C. and blocked with 3% nonfat milk in PBS (pH7.4). For cleavage with urokinase (uPA), 30 μg antibodies were mixed with or without 0.3 μg recombinant human uPA (50 μg/mL) (Sino Biological) in PBS (pH7.4) and incubated at room temperature for 4 hour. Then the mixture with or without uPA was diluted in a fivefold gradient and incubated at room temperature for 2 h. The plates were washed with PBS containing 1% nonfat milk. Bound antibodies were detected by HRP-conjugated streptavidin (Sigma). The assay was developed at room temperature with TMB substrate (Solarbio) and monitored at 450 nm with a microplate reader. The half-maximal binding (EC₅₀) was calculated by fitting the data to the Langmuir adsorption isotherm.

Binder	binding result
1.6.1M-Pa proBiTE (bispecific antibody, Intact, not treated with uPA; As 1.6.1M proBiTE but with a panitumumab anti-EGFR scFv in the light chain) heavy: QDGNEEMGGGSQDGNEEMGGIGGGSGGGGSGLSGRSDNHGGGGSEVQLVESGGGLVQPGGSLRLSCAASGFTFNTYAMNWVRQAPGKGLEWVARIRSKYNNYATYYADSVKGRFTISRDDSKNTLYLQMNSLRAEDTAVYYCARHGNFGSSYVSYFAYWGQGTTVTVSSASTKGPSVFPLAPSSKSTSGGTAALGCLVKDYFPEPVTVSWNSGALTSGVHTFPAVLQSSGLYSLSSVVTVPSSSLGTQTYICNVNHKPSNTKVDKKVEPKSCPPCPAPEAAGAPSVFLFPPKPKDTLMISRTPEVTCVVVDVSHEDPEVKFNWYVDGVEVHNAKTKPREEQYNSTYRVVSVLTVLHQDWLNGKEYKCKVSNKALPAPIEKTISKAKGQPREPQVYTLPPSRDELTKNQVSLLCLVKGFYPSDIAVEWESNGQPENNYKTTPPVLDSDGSFFLHSKLTVDKSRWQQGNVFSCSVMHEALHNHYTQKSLSLSPGK light: QVQLQESGPGLVKPSETLSLTCTVSGGSVSSGDYYWTWIRQSPGKGLEWIGHIYYSGNTNYNPSLKSRLTISIDTSKTQFSLKLSSVTAADTAIYYCVRDRVTGAFDIWGQGTMVTVSSGGGGSGGGGSGGGGSGGGGSDIQMTQSPSSLSASVGDRVTITCQASQDISNYLNWYQQKPGKAPKLLIYDASNLETGVPSRFSGSGSGTDFTFTISSLQPEDIATYFCQHFDHLPLAFGGGTKVEIKGGGGSGGGGSGGGGSGGGGSEIVVTQSPATLSVSPGERATLSCRSSTGAVTTSNYANWVQQKPGQAPRGLIGGANKRAPGVPARFSGSLSGDEATLTISSLQSEDFAVYYCALWYSNLWVFGQGTKLEIKRTVAAPSVFIFPPSDEQLKSGTASVVCLLNNFYPREAKVQWKVDNALQSGNSQESVTEQDSKDSTYSLSSTLTLSKADYEKHKVYACEVTHQGLSSPVTKSFNRGECPPCPAPEAAGAPSVFLFPPKPKDTLMISRTPEVTCVVVDVSHEDPEVKFNWYVDGVEVHNAKTKPREEQYNSTYRVVSVLTVLHQDWLNGKEYKCKVSNKALPAPIEKTISKAKGQPREPQVYTLPPSRDELTKNQVSLLCLVKGFYPSDIAVEWESNGQPENNYKTTPPVLDSDGSFFLHSKLTVDKSRWQQGNVFSCSVMHEALHNHYTQKSLSLSPGK	binds
1.6.1M-2-1-Pa proBiTE (bispecific antibody, Intact, not treated with uPA) heavy: QDGNEEMGGGSQDGNEEMGGIGGGSGGGGSGLSGRSDNHGGLSGRSDNHGGSEVQLVESGGGLVQPGGSLRLSCAASGFTFNTYAMNWVRQAPGKGLEWVARIRSKYNNYATYYADSVKGRFTISRDDSKNTLYLQMNSLRAEDTAVYYCARHGNFGSSYVSYFAYWGQGTTVTVSSASTKGPSVFPLAPSSKSTSGGTAALGCLVKDYFPEPVTVSWNSGALTSGVHTFPAVLQSSGLYSLSSVVTVPSSSLGTQTYICNVNHKPSNTKVDKKVEPKSCPPCPAPEAAGAPSVFLFPPKPKDTLMISRTPEVTCVVVDVSHEDPEVKFNWYVDGVEVHNAKTKPREEQYNSTYRVVSVLTVLHQDWLNGKEYKCKVSNKALPAPIEKTISKAKGQPREPQVYTLPPSRDELTKNQVSLLCLVKGFYPSDIAVEWESNGQPENNYKTTPPVLDSDGSFFLHSKLTVDKSRWQQGNVFSCSVMHEALHNHYTQKSLSLSPGK light: QVQLQESGPGLVKPSETLSLTCTVSGGSVSSGDYYWTWIRQSPGKGLEWIGHIYYSGNTNYNPSLKSRLTISIDTSKTQFSLKLSSVTAADTAIYYCVRDRVTGAFDIWGQGTMVTVSSGGGGSGGGGSGGGGSGGGGSDIQMTQSPSSLSASVGDRVTITCQASQDISNYLNWYQQKPGKAPKLLIYDASNLETGVPSRFSGSGSGTDFTFTISSLQPEDIATYFCQHFDHLPLAFGGGTKVEIKGGGGSGGGGSGGGGSGGGGSEIVVTQSPATLSVSPGERATLSCRSSTGAVTTSNYANWVQQKPGQAPRGLIGGANKRAPGVPARFSGSLSGDEATLTISSLQSEDFAVYYCALWYSNLWVFGQGTKLEIKRTVAAPSVFIFPPSDEQLKSGTASVVCLLNNFYPREAKVQWKVDNALQSGNSQESVTEQDSKDSTYSLSSTLTLSKADYEKHKVYACEVTHQGLSSPVTKSFNRGECPPCPAPEAAGAPSVFLFPPKPKDTLMISRTPEVTCVVVDVSHEDPEVKFNWYVDGVEVHNAKTKPREEQYNSTYRVVSVLTVLHQDWLNGKEYKCKVSNKALPAPIEKTISKAKGQPREPQVYTLPPSRDELTKNQVSLLCLVKGFYPSDIAVEWESNGQPENNYKTTPPVLDSDGSFFLHSKLTVDKSRWQQGNVFSCSVMHEALHNHYTQKSLSLSPGK	binds
